Reference: PMC9881875 (bioRxiv, 2023)

How the values were obtained:
Assay in all cases: fluorescence polarisation
NHERF2 PDZ2 = NHERF2 PDZ2 (UniProt Q15599 142-280)
DLG1 PDZ1 = DLG1 PDZ1 (UniProt Q12959 220-317)
SNX27 PDZ = SNX27 PDZ (UniProt Q96L92 41-135)
MAGI1 PDZ2 = MAGI1 PDZ2 (UniProt Q96QZ7 471-554)
Chain of MAGI1 PDZ2 (Q96QZ7 471-554): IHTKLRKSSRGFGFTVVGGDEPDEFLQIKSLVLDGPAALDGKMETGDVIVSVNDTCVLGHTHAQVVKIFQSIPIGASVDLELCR

Chain of NHERF2 PDZ2 (Q15599 142-280): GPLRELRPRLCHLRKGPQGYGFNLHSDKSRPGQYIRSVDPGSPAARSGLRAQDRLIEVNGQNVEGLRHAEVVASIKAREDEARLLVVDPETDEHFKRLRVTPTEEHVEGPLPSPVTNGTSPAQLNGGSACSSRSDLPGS
Chain of DLG1 PDZ1 (Q12959 220-317): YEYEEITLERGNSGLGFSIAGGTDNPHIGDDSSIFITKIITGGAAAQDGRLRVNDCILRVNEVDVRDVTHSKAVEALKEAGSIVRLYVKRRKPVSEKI

B1: _(SSRT)CFTR peptide (peptide)
peptide: SSRTVQDTRL
NHERF2 PDZ2
  Ki: 1.7 ± 0.4 µM
DLG1 PDZ1
  Ki: > 1000 µM
SNX27 PDZ
  Ki: 0.46 ± 0.11 µM
MAGI1 PDZ2
  IC50: > 1000 µM
